The labels stand for the following.
T1: Chlamydomonas IFT81/74_(128-C) heterodimer within the IFT-B1 nonamer (Chlamydomonas reinhardtii, UniProt Q68RJ5 1-683; Q6RCE1 128-641)
T1 sequence (looked up) 1: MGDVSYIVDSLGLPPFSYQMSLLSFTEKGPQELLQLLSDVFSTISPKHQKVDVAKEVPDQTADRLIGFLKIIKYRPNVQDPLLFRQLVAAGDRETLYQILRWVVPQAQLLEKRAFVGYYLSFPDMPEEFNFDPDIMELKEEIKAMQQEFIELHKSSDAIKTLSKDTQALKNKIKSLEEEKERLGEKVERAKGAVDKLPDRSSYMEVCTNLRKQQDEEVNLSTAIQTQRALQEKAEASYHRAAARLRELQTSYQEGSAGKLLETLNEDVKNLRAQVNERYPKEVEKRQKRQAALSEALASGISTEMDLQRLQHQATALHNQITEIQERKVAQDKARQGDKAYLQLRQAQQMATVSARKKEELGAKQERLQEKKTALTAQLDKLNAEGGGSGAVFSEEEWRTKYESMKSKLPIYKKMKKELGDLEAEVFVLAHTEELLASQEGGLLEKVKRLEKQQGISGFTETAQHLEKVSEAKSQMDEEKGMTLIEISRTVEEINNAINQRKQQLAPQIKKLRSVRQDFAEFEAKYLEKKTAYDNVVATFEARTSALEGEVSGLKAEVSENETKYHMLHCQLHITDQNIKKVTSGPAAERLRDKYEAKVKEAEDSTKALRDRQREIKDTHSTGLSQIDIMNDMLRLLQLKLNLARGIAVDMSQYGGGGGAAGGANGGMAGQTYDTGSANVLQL
T1 sequence (looked up) 2: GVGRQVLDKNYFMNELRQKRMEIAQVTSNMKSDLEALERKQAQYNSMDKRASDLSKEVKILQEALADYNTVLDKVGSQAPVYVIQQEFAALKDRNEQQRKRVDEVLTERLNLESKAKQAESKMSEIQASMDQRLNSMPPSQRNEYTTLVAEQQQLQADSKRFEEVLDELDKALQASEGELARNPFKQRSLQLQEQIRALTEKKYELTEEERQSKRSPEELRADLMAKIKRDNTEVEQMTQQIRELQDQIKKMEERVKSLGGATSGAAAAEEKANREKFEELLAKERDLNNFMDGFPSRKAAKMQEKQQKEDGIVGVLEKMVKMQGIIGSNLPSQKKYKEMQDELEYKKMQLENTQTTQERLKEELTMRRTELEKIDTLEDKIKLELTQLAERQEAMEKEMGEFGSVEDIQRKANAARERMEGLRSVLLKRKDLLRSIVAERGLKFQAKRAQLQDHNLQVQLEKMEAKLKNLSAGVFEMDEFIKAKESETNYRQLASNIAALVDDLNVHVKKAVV

T2: Chlamydomonas IFT81 (Chlamydomonas reinhardtii, UniProt Q68RJ5 1-683)
T2 sequence (looked up): T1 sequence (looked up) 1

T3: CrIFT172_(1-968) (Chlamydomonas reinhardtii, UniProt Q5DM57 1-968)
T3 sequence (looked up): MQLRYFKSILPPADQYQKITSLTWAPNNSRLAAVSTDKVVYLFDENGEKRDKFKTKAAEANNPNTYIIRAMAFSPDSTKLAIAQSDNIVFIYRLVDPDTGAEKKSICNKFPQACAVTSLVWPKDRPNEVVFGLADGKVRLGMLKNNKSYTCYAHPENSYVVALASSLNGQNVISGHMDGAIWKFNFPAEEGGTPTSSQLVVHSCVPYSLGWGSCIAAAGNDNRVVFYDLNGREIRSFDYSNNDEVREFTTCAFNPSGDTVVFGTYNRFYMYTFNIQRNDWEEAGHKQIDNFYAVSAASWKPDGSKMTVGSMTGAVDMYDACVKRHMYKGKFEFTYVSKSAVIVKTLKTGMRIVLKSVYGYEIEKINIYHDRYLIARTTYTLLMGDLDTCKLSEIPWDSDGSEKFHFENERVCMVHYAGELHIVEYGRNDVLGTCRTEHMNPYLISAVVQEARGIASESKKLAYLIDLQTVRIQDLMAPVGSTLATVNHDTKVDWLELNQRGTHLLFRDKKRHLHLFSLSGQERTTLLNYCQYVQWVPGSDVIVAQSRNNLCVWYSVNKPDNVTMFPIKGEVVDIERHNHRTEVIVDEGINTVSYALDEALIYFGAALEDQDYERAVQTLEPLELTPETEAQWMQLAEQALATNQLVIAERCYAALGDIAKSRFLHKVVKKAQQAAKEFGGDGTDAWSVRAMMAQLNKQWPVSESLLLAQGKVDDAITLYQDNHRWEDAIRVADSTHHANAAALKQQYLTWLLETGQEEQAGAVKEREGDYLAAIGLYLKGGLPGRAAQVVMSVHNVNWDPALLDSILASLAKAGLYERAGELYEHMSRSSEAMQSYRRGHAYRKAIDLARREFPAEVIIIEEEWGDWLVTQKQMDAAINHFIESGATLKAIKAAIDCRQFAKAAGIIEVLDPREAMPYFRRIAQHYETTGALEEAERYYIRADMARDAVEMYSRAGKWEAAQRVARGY

B1: Chlamydomonas IFT27 (natural protein, Chlamydomonas reinhardtii)
chain: MVKKEVKPIDITATLRCKVAVVGEATVGKSALISMFTSKGSKFLKDYAMTSGVEVVVAPVTIPDTTVSVELFLLDTAGSDLYKEQISQYWNGVYYAILVFDVSSMESFESCKAWFELLKSARPDRERPLRAVLVANKTDLPPQRHQVRLDMAQDWATTNTLDFFDVSANPPGKDADAPFLSIATTFYRNYEDKVAAFQDACRNY
B2: Chlamydomonas IFT25_(1-136) (domain or fragment, Chlamydomonas reinhardtii, UniProt B8LIX8 1-136, looked up)
chain: MKDYAREENGGLVVMASCSDERFPPENMLDGKDNTFWVTTGMFPQEFVLRLESCIRVSKITTLSLNVRKLAVEKCDQDKPDQFEKVFEVELANRGDRLQTEVHQVNIRAKYLKFILLQGHGEFATVNRVSVVGGDD
B3: Chlamydomonas IFT46_(188-319) (domain or fragment, Chlamydomonas reinhardtii, UniProt A2T2X4 188-319, looked up)
chain: QLRQLSKEAPGAKADMVGRLEHTDENKAKKIQQWIASINDIHKAKPAATVNYSKRMPEIEALMQEWPPEVETFLKTMHMPSGDVELDIKTYARLVCTLLDIPVYDDPVESLHVLFTLYLEFKNNPIFRQHME
B4: Chlamydomonas IFT74_(128-C) (domain or fragment, Chlamydomonas reinhardtii, UniProt Q6RCE1 128-641, looked up)
chain: T1 sequence (looked up) 2
B5: GST-tagged CrIFT57_(1-234) (domain or fragment, Chlamydomonas reinhardtii, UniProt Q2XQY7 1-234, looked up)
chain: MSSKRGGRSSLAKAPEEAVNGEAFAPEASPPPPGDDGDAGGEDGGAPAPPPPPATKGGPVAVGRSLEIQTTPDVCMEMLADKLKLLNYEADFCRKKKPYRKPLSRLYFAVPLANSSEQFFYFTSLATWLLGLAGVELPAPKEFDDPNLTCQNILGAVKKLGFAPPSYHPTKLTVGNGKEVVGVLDGLVDFVLERRHHKYSRPAYGNDGQPEEGVQLDDEAEAAAMEGADELAMP

Test [1] addresses T1, Chlamydomonas IFT81/74_(128-C) …. Put plainly: cross-linking.
A further test deals with T2, Chlamydomonas IFT81. Put plainly: cross-linking.
In test [2] the target is B4. Put plainly: cross-linking.
A further test deals with T3, CrIFT172_(1-968). Put plainly: pull-down.

This note sets out measurements from publication doi:10.1101/2022.08.20.504624 (bioRxiv, 2022).

As for B1, the binding result in test [1] is listed as “binds”.
Take B2: the binding result in test [1] was “binds”.
Consider B3, for which the binding result (with Chlamydomonas IFT81; in test [2]) was “binds” throughout.
On to B4, for which, in the test with Chlamydomonas IFT81, the binding result is recorded as “binds”.
As to B5, the binding result in the test with CrIFT172_(1-968) was “binds”.
